Measurements published in article PMC12416549 (2024).
Where a chain is given by its changes, count along the chain named. In names and notes the source's numbering stands.

Target: T1, TNFR1 (Homo sapiens, UniProt P19438)
T1 chain: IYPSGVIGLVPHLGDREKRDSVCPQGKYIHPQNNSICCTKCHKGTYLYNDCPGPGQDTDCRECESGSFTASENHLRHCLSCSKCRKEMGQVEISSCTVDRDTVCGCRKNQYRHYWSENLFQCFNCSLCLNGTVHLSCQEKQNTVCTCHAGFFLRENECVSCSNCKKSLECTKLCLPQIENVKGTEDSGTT
Assay: yeast display SC50

B1: E33I (designed binder)
chain: MTLQELLREEALRRAEAEAFRYALELLAEKFPIQKEYLLDLAEEIESQIRSLSGVDVEDVRKFLDKEWAWVKELLAEHPAELAEVEAARAARLAELRAEVEAKVAA
  apparent Kd (screen): 0.718 nM

B2: A23T (designed binder)
chain: B1 chain with A23T, I33E
  apparent Kd (screen): 0.539 nM

B3: A80Q (designed binder)
chain: B1 chain with I33E, A80Q
  apparent Kd (screen): 0.49 nM

B4: L27V (designed binder)
chain: B1 chain with L27V, I33E
  apparent Kd (screen): 1.54 nM

B5: P32Q (designed binder)
chain: B1 chain with P32Q, I33E
  apparent Kd (screen): 0.593 nM

B6: R8K (designed binder)
chain: B1 chain with R8K, I33E
  apparent Kd (screen): 0.539 nM

B7: E36K (designed binder)
chain: B1 chain with I33E, E36K
  apparent Kd (screen): 3.99 nM

B8: K35W (designed binder)
chain: B1 chain with I33E, K35W
  apparent Kd (screen): 0.593 nM

B9: L27T (designed binder)
chain: B1 chain with L27T, I33E
  apparent Kd (screen): 0.539 nM

B10: R97N (designed binder)
chain: B1 chain with I33E, R97N
  apparent Kd (screen): 0.539 nM

B11: L75D (designed binder)
chain: B1 chain with I33E, L75D
  apparent Kd (screen): 0.539 nM

B12: A69H (designed binder)
chain: B1 chain with I33E, A69H
  apparent Kd (screen): 0.869 nM

B13: R89G (designed binder)
chain: B1 chain with I33E, R89G
  apparent Kd (screen): 1.05 nM

B14: F63T (designed binder)
chain: B1 chain with I33E, F63T
  apparent Kd (screen): 0.869 nM

B15: R8F (designed binder)
chain: B1 chain with R8F, I33E
  apparent Kd (screen): 0.49 nM

B16: K30Y (designed binder)
chain: B1 chain with K30Y, I33E
  apparent Kd (screen): 0.539 nM

B17: A11Q (designed binder)
chain: B1 chain with A11Q, I33E
  apparent Kd (screen): 0.79 nM

B18: R50M (designed binder)
chain: B1 chain with I33E, R50M
  apparent Kd (screen): 0.593 nM

B19: D59L (designed binder)
chain: B1 chain with I33E, D59L
  apparent Kd (screen): 0.718 nM

B20: E86Q (designed binder)
chain: B1 chain with I33E, E86Q
  apparent Kd (screen): 0.869 nM

B21: E46Y (designed binder)
chain: B1 chain with I33E, E46Y
  apparent Kd (screen): 0.539 nM

B22: L7G (designed binder)
chain: B1 chain with L7G, I33E
  apparent Kd (screen): 16.7 nM

B23: S47E (designed binder)
chain: B1 chain with I33E, S47E
  apparent Kd (screen): 0.49 nM

B24: A88E (designed binder)
chain: B1 chain with I33E, A88E
  apparent Kd (screen): 0.49 nM

B25: L96R (designed binder)
chain: B1 chain with I33E, L96R
  apparent Kd (screen): 0.956 nM

B26: K72S (designed binder)
chain: B1 chain with I33E, K72S
  apparent Kd (screen): 0.49 nM

B27: V100T (designed binder)
chain: B1 chain with I33E, V100T
  apparent Kd (screen): 0.49 nM

B28: L26A (designed binder)
chain: B1 chain with L26A, I33E
  apparent Kd (screen): 0.718 nM

B29: E44H (designed binder)
chain: B1 chain with I33E, E44H
  apparent Kd (screen): 2.05 nM

B30: L96P (designed binder)
chain: B1 chain with I33E, L96P
  apparent Kd (screen): 0.49 nM

B31: L75Y (designed binder)
chain: B1 chain with I33E, L75Y
  apparent Kd (screen): 0.718 nM

B32: E5S (designed binder)
chain: B1 chain with E5S, I33E
  apparent Kd (screen): 0.49 nM

B33: A15Y (designed binder)
chain: B1 chain with A15Y, I33E
  apparent Kd (screen): 0.539 nM

B34: R50E (designed binder)
chain: B1 chain with I33E, R50E
  apparent Kd (screen): 0.446 nM

B35: A87T (designed binder)
chain: B1 chain with I33E, A87T
  apparent Kd (screen): 0.956 nM

B36: E36A (designed binder)
chain: B1 chain with I33E, E36A
  apparent Kd (screen): 0.49 nM

B37: W68A (designed binder)
chain: B1 chain with I33E, W68A
  apparent Kd (screen): 1.4 nM

B38: K62F (designed binder)
chain: B1 chain with I33E, K62F
  apparent Kd (screen): 0.593 nM

B39: A42C (designed binder)
chain: B1 chain with I33E, A42C
  apparent Kd (screen): 1.05 nM

B40: D56H (designed binder)
chain: B1 chain with I33E, D56H
  apparent Kd (screen): 1.86 nM

B41: V57L (designed binder)
chain: B1 chain with I33E, V57L
  apparent Kd (screen): 0.539 nM

B42: R13L (designed binder)
chain: B1 chain with R13L, I33E
  apparent Kd (screen): 0.49 nM

B43: D59M (designed binder)
chain: B1 chain with I33E, D59M
  apparent Kd (screen): 0.539 nM

B44: E95L (designed binder)
chain: B1 chain with I33E, E95L
  apparent Kd (screen): 0.446 nM

B45: R14M (designed binder)
chain: B1 chain with R14M, I33E
  apparent Kd (screen): 0.718 nM

B46: A98M (designed binder)
chain: B1 chain with I33E, A98M
  apparent Kd (screen): 0.653 nM

B47: L38Y (designed binder)
chain: B1 chain with I33E, L38Y
  apparent Kd (screen): 0.79 nM

B48: E25I (designed binder)
chain: B1 chain with E25I, I33E
  apparent Kd (screen): 0.869 nM

B49: L39A (designed binder)
chain: B1 chain with I33E, L39A
  apparent Kd (screen): 2.05 nM

B50: E46F (designed binder)
chain: B1 chain with I33E, E46F
  apparent Kd (screen): 0.49 nM

B51: E67G (designed binder)
chain: B1 chain with I33E, E67G
  apparent Kd (screen): 13.8 nM

B52: L74W (designed binder)
chain: B1 chain with I33E, L74W
  apparent Kd (screen): 0.189 nM

B53: R50Y (designed binder)
chain: B1 chain with I33E, R50Y
  apparent Kd (screen): 0.539 nM

B54: R89A (designed binder)
chain: B1 chain with I33E, R89A
  apparent Kd (screen): 0.79 nM

B55: E46C (designed binder)
chain: B1 chain with I33E, E46C
  apparent Kd (screen): 0.304 nM

B56: I49R (designed binder)
chain: B1 chain with I33E, I49R
  apparent Kd (screen): 0.593 nM

B57: A90R (designed binder)
chain: B1 chain with I33E, A90R
  apparent Kd (screen): 0.718 nM

B58: Q4N (designed binder)
chain: B1 chain with Q4N, I33E
  apparent Kd (screen): 0.405 nM

B59: E29L (designed binder)
chain: B1 chain with E29L, I33E
  apparent Kd (screen): 0.539 nM
